The results in this text go back to patent publication US20260258115A1.

For test [1], the target named is RSV postfusion F (postF), F deltaFP (Respiratory Syncytial Virus). The test can be described thus: BLI, IgG on anti-human IgG sensor, 100 nM antigen.
Test [2] addresses RSV prefusion F (preF), DS-Cav1 (Respiratory Syncytial Virus). The test can be described thus: BLI, IgG on anti-human IgG sensor, 100 nM antigen. (Biolayer interferometry detects binding as a change in optical thickness at a sensor tip.)
Test [3] deals with Respiratory Syncytial Virus fusion glycoprotein (RSV F) on RSV-A2 virus (Respiratory Syncytial Virus subtype A (RSV-A2)). The test can be described thus: cell-based or functional assay.

B1: ADI-41207 (antibody, V domains shown)
VH: QVQLVQSGPALVKPTQTLTLTCTFSGFSLSTKGMCVSWIRQPPGKALEWLALIDWDDDKFYSTSLKTRLTISKDTSKNQVVLTMTNMDPVDTATYYCARTLYFYGSGSLSDYCFDYWGQGTPVTVSS
VL: QPVLTQPRSVSGSPGQSVTISCTGTSRDVGNYNFVSWYQQHPGKAPKLIIYDVTKRPSGVPDRFSGSKSGNTASLTISGLQAEDEADYYCCSYAGTYTWVFGGGTKVTVL
Regarding B1, the Kd turned out to be 0.438 nM in test [1] and 2.53 nM in test [2]. This molecule also came in with a Neutralization IC50 (RSV subtype A) in test [3] of over 25 mg/L.

B2: ADI-41215 (antibody, V domains shown)
VH: QVQLVESGGGVVRPGGSLRLSCAASGFTFDDYGMSWVRQAPGKGLEWVSGINWSGGSTDYADSVKGRFTISRDNAKNSLYLQMNSLRAEDTALYYCAKEGQEWELLPWYFDLWGRGTLVTVSS
VL: QPVLTQPASVSGSPGQSITIPCTGTSSDVGIYNLVSWYQQHPGKAPKLMIYDVSKRPSGVSNRFSGSKSGNTASLTISGLQAEDEADYYCCSYAGGSTYVFGTGTKLTVL
Take B2: the Kd turned out to be 0.563 nM in test [1] and 0.437 nM in test [2]. In test [3], the Neutralization IC50 (RSV subtype A) amounted to 0.32 mg/L.

B3: ADI-41231 (antibody, V domains shown)
VH: QVQLVQSGAEVKKPGESLKISCKGSGYSFTNNWVGWVRQMPGKGLEWMGIIFPGDSDTRYSPSFRGQVTISVDTSINTAFLQWNSLGASDTAMYYCAMTDYNYSFKSWGQGTLVTVSS
VL: NFMLTQPHSVSESPGKTITISCTRSSGNIGNNYVQWYQQRPGSSFTTVIYEDYQRPSGVPDRFSGSIDSSSNSATLTISGLKTEDEADYYCQSYDSSNPYVFGTGTKVTVL
In the case of B3, the Kd was found to be 0.426 nM in test [1] and 3.05 nM in test [2]. Moreover, in test [3], the Neutralization IC50 (RSV subtype A) was over 25 mg/L.

B4: ADI-41213 (antibody, V domains shown)
VH: EVQLVESGGGLIQPGGSLRLSCAASGFTVSSNYMSWVRQAAGKGLEWVSLIYSGDSTYYADSVKGRFTISRDNSQNTLYLQMNSLRAEDTAVYYCARDASPNVGYYGMDVWGQGTTVTVSS
VL: DIVLTQPPSVSVSPGQTASITCSGGKLGDTYACWYQQKPGQSPVLVIYQDSKRPSGIPERFSGSNSGNTATLTISGTQAMDEADYYCQAWDSSTARYVFGTGTKVTVL
Turning to B4, the Kd in test [1] was 0.577 nM; in test [2], 3.47 nM. Moreover, the Neutralization IC50 (RSV subtype A) in test [3] was over 25 mg/L.

B5: ADI-41212 (antibody, V domains shown)
VH: EVQLLESGAEVKKPGASVKVSCKASGYTFTDYYIHWVRQAPGQGLEWMGRINPKNGDAIYAQNFQGRVTMTRDTSISTAYMEVSRLTSDDTAVYYCARDQMWLVLDYWGQGTLVTVSS
VL: QSALTQPASVSGSPGQSITISCTGTSSDVGGYDYVSWYQQHPGKAPKLMIHDVTNRPSGISHRFSGSKSGNTASLTISGLQAGDEADYYCSSYTRSNTKVFGTGTKVTVL
For the molecule B5, the results for the Kd in test [1] and in test [2] were 0.4 nM and 3.18 nM, respectively. The molecule also gave a Neutralization IC50 (RSV subtype A) in test [3] of over 25 mg/L.

B6: ADI-41228 (antibody, V domains shown)
VH: EVQLLESGPGLVKPSETLSLTCTVSGGSISSYQWNWIRQPPGKGLEWLGYVYYSGSTNYNPSLKSRVTLSVDTSKNQFSLKLSSVTAADTAVYYCARDRRDGSFVFDYWGQGTLVTVSS
VL: QSVLIQPASVSGSPGQSITISCTGTSSDVGGYNYVSWYQQHPGKAPKLMIYDVSNRPSGISNRFSGSKSGNTASLTISGLQAEDEADYYCSSYTSSTTLVFGTGTKVTVL
Take B6: the values for the Kd in test [1] and in test [2] were 0.618 nM and 4.86 nM, respectively. In test [3], this molecule had a Neutralization IC50 (RSV subtype A) of over 25 mg/L.

B7: ADI-41214 (antibody, V domains shown)
VH: EVQLVESGGGLVQPGGSLRLSCAASGFTFSSYWMSWVRQAPGKGLEWVATIKQDGSEKYSVDSVKGRFTISRDNPKKSLYLQMNSLRAEDTAVYYCARDYRVEYYHSSDKLKRYYYYGMDVWGQGTTVTVSS
VL: DIRVTQSPSSLSASVGDRVTITCRASQSISTYLNWYQQKPGKAPKFLIYAASSLESGVPSRFSGSGSGTDFSLTISSLQPEDFATYYCQQSYSIPITFGQGTRLEIK
In the case of B7, the Kd in test [1] turned out to be 1.02 nM; in test [2], 5.7 nM. Further, the Neutralization IC50 (RSV subtype A) in test [3] was over 25 mg/L.

B8: ADI-41225 (antibody, V domains shown)
VH: EVQLVESGGGLVKPGGSLRLSCAASGFSLSDYYMTWLRQAPGKGLEWVSSIGTTSTYTNYAESVKDRFTISRDNAKNSLYLQMNSLRAEDTAVYYCARDWGFGVERGYFDLWGRGTLVTVSS
VL: DIVLTQTPSTLSASVGDRVTITCRASQSISFWLAWYQQKPGKAPKLLIYKASTLESGVPSRFSGRGSGTDFTLTISSLQPDDFATYYCQQYNTYTWTFGQGTKVEIK
Consider B8, for which the Kd in test [1] worked out at 0.733 nM; in test [2] it was 4.15 nM. This molecule also gave a Neutralization IC50 (RSV subtype A) in test [3] of over 25 mg/L.

B9: ADI-41230 (antibody, V domains shown)
VH: QVQLVQSGAEVKKPGESLKISCKASGYSFTSHYWIGWVRQMPGKGLEWMGFIFPGDSDTRYSPSLQGQVTISADKSTNTAYLQWNSLKASDTAMYYCARLEYLVSGFEYWGQGTLVTVSS
VL: QPGLTQPHSVSESPGKTVTISCTRSSGSIASNYVHWYQQRPGSFPTTVIYEDNQRPSGVPDRFSGSIDSSSNSASLTISGLRTEDEADYYCQSYDSSNPVVFGGGTKVTVL
With B9, the equilibrium dissociation constant (Kd) is 0.407 nM in test [1] and 1.83 nM in test [2]. This molecule also came in with a Neutralization IC50 (RSV subtype A) in test [3] of 24.1 mg/L.

B10: ADI-41205 (antibody, V domains shown)
VH: QVQLQESGPGLVKPSGTLSLTCAVSGGSISSTNWWSWVRQPPGKGLEWIGEIYHSGSTNYNPSLKSRVTISVDKSNNQFSLNLSSVTAADTAVYYCARGVITYRGSWFLQYFDYWGQGTLVTVSS
VL: DIRVTQSPDSLAVSLGERATINCKSSQSLFYSSNNQNYLAWYQQKPGQPPKLLIYWASTRQSGVPHRFSGSGSGTDFTLTISSLQAEDVAVYYCQQYYSSPLTFGGGTKVEIK
For B10, the Kd in test [1] worked out at 0.536 nM; in test [2], 1.16 nM. In test [3], this molecule returned a Neutralization IC50 (RSV subtype A) of over 25 mg/L.

B11: ADI-41224 (antibody, V domains shown)
VH: EVQLVETGGGLVQPGRSLRLSCTASGFTFGDYAMNWVRQAPGKGLEWIGIIRTKTYGGTTEYAASVKGRFTISRDDSKGIAYLQMNSLKTEDTGVYYCTMPVLNMDVWGQGTTVTVSS
VL: QPVLTQPHSVSESPGKTVTISCTRNIGNIASNYVQWYQQRPGSSPTTVIYEDNQRPSGVPDRFSGSIDISSNSASLTISGLKTEDEADYYCQSYDSNNPWVFGGGTQLTVL
Regarding B11, the figures for the Kd in test [1] and in test [2] were 0.558 nM and 0.524 nM, respectively. Also, the Neutralization IC50 (RSV subtype A) in test [3] worked out at 0.13 mg/L.

In general, Kd refers to the equilibrium constant for the complex coming apart. The low end stands for tighter binding, the high end for weaker binding.
